Columns and labels:
Test in all cases: pull-down binding Z-score (relative to library population); higher = stronger binding
[1] = system: TO-N3-2 (biotin conjugate); details: RNA library: Library-2
Procedure, shortened: (§1)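 Cy5- or Cy3-end-labelled RNA library (1 μg) was heat-folded in phosphate/NaCl/KCl buffer and incubated 60 min at 25 °C with streptavidin beads carrying 100 pmol biotin-conjugated small molecule. After three washes, bound RNA was eluted in hot SDS and hybridised 20 h at 55.5 °C to a DNA barcode microarray. Binding was scored by subtracting a beads-only control, averaging barcoded replicate probes after dropping highest and lowest, and converting to a Z-score against library mean and standard deviation.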

TO-N3 (biotin conjugate) = details: RNA library: Library-2
Procedure, shortened: as §1

[2] = system: TO-3-N3 (biotin conjugate); details: RNA library: Library-2
Procedure, shortened: as §1

[3] = system: TO-3-N3-2 (biotin conjugate); details: RNA library: Library-2
Procedure, shortened: as §1

[4] = system: G-clamp-N3 (biotin conjugate); details: RNA library: Library-1 (pre-miRNA loops + repeats)
Procedure, shortened: as §1

Sequence	pull-down binding Z-score [1]	pull-down binding Z-score (TO-N3 (biotin conjugate))	pull-down binding Z-score [2]	pull-down binding Z-score [3]	pull-down binding Z-score [4]
UUCAUAGGGAAGCCUUUCCAUGAA [hsa-mir-4738]	-0.574	-0.559	-0.542	-0.446	-0.912
UUCAUGUUCACUGAAAGGUAGAUUUUAAAAACAUGAA [hsa-mir-4790]	-0.575	-0.371	-0.15	0.268	-0.0488
UUCAUUCAUUCGUUUGCACAUUCGGUGAA [hsa-mir-493]	-0.394	-0.736	-0.556	-0.21	0.183
UUCAUUUUAUUUAUGAUGAG [hsa-mir-496]	-1.33	-1.2	-0.959	-0.288	1.12
UUCCGGUGAUUAUCACAGCCAUGCCUUUACCUCCAGAA [hsa-mir-4493]	-0.00535	-0.594	-0.84	-0.0994	-0.101
UUCCUUGUCUGUAGCCAUGUCUAUGGGCUCUUGAG [hsa-mir-571]	-0.131	0.461	0.494	-0.0353	-0.205
UUCGCAUUAUUUAAUGAUGCCCA [hsa-mir-323b]	-0.486	-0.467	-0.392	-0.241	-0.751
UUCGCGGUUGGGCU [hsa-mir-3143]	0.693	1.33	1.21	0.258	0.897
UUCUAAUGCCAAGAA [hsa-mir-1279]	-0.306	0.773	0.835	-0.117	-0.241
UUCUAGUCCCUAUUAGACUAGAA [hsa-mir-5681a]	-1.08	-1	-0.543	-0.506	-0.692
UUCUCCUUGGGAAAAACAGAGAA [hsa-mir-605]	-0.414	-0.65	-0.446	-0.016	-0.311
UUCUCGAGUCUAUGGCUCCGGCCGAGAG [hsa-mir-219a-1]	1.1	0.342	0.197	0.358	-0.199
UUCUCGGUUGGCCGCAGACUCGUACAAGAA [hsa-mir-219b]	0.724	0.0802	-0.383	0.0156	0.895
UUCUCUUUAUUUAUGAUGAA [hsa-mir-494]	-1.8	-1.56	-0.968	-0.639	-1.25
UUCUGCUGAAGACUGGUCUCUUCAUGUGUGAG [hsa-mir-6133]	0.00769	-0.371	-0.389	-0.0941	-0.872
UUCUGCUGUGCCUUACAGCAGUAGAA [hsa-mir-3179-4_3179-1_3179-3_3179-2]	-0.695	0.0349	0.188	-0.383	0.67
UUCUGUGGUUUGAAAGGAA [hsa-mir-1323]	-0.252	0.444	0.85	0.281	1.07
UUCUGUUGUCAGAAAGAAGAGAA [hsa-mir-1283-1]	-0.0355	0.0942	0.146	-0.107	0.462
UUCUGUUGUCUGAAAGAAAAGAA [hsa-mir-1283-2]	-0.382	-0.429	-0.517	-0.145	0.164
UUCUGUUGUCUGAAAGAAACCAA [hsa-mir-518d]	0.126	-0.0135	-0.253	-0.0975	-1.34
UUCUUCCUGGAGUCGGGGAAAAG [hsa-mir-320e]	0.278	0.516	0.308	-0.0301	1.31
UUCUUGUACGAGUCUGCGGCCAACCGAGAA [hsa-mir-219a-2]	0.974	0.347	-0.402	-0.366	-0.0874
UUCUUUGAGGAUCUGGCCUAAAGAG [hsa-mir-202]	0.811	1.27	1.14	0.362	-0.443
UUCUUUUUUCUGAAAUUCUUCAGGAAGGA [hsa-mir-3167]	-0.017	0.0883	0.368	0.823	-0.0544
UUGAACUUCAUUUCUCAUGCUCA [hsa-mir-6870]	0.145	-0.104	-0.278	0.277	-1.6

Sequence	pull-down binding Z-score [1]	pull-down binding Z-score (TO-N3 (biotin conjugate))	pull-down binding Z-score [2]	pull-down binding Z-score [3]	pull-down binding Z-score [4]
UUGAAUCACACACACAUUUCAA [hsa-mir-4803]	-0.644	-0.366	-0.208	-0.154	-0.451
UUGACCAAUCAUCUUAUUGACUAGA [hsa-mir-6502]	-0.496	-0.471	-0.403	-0.177	-1.52
UUGAGAACCAG [hsa-mir-4328]	1.04	1.79	1.74	0.215	-0.606
UUGAGAAGUAAUUGA [hsa-mir-548ak]	-0.239	0.251	0.404	-0.0284	0.0758
UUGAGCAUCUUCUGGGCAGCUGA [hsa-mir-7854]	0.833	0.397	-0.0613	0.147	-0.764
UUGAGGAGAGCACCACAGUGGUCAUCACACAG [hsa-mir-622]	1.19	0.871	0.0413	0.109	-1.25
UUGAGGGACAUGGUUAAUGGAAUUGUCUCA [hsa-mir-342]	0.641	0.413	0.338	0.0248	0.369
UUGAUGUCAGAAUGAGGUGUACCAA [hsa-mir-4714]	-0.099	-0.148	-0.499	0.1	1.29
UUGAUGUCAGGUUAUCCCCAAGCAUAACCUCAC [hsa-mir-4639]	-0.0627	-0.499	-0.576	-0.186	-1.21
UUGAUUCAGUAAAACAUUCAA [hsa-mir-891b]	-0.902	-0.695	-0.376	-0.0671	-0.189
UUGCCCAA [hsa-mir-548bb]	-0.332	-0.211	-0.0547	-0.317	0.764
UUGCUCACGGUAAGAAAAACAUGAGUAA [hsa-mir-8062]	-0.388	0.238	0.553	0.384	0.431
UUGCUCUUUGGUGGAGAUA [hsa-mir-6074]	0.241	0.505	0.509	-0.00756	0.646
UUGCUUAAG [hsa-mir-924]	-0.696	0.3	0.586	-0.269	-0.513
UUGGCACAGGGAAGCGAGUCUGCCAA [hsa-mir-195]	1.23	0.504	0.0632	0.354	2.53
UUGGCCUUUAUUUUCAAUGGCAAG [hsa-mir-548b]	0.0975	0.349	0.655	-0.117	-0.0843
UUGGCGUAGUGAAAUAUAUAUUAAACACCAA [hsa-mir-16-2]	0.0267	0.0274	0.128	0.371	-0.484
UUGGCGUUAAGAUUCUAAAAUUAUCUCCAG [hsa-mir-16-1]	-0.642	-0.952	-0.825	-0.307	-1.03
UUGGGAUCCACCUUUCUCUCGA [hsa-mir-196b]	-0.031	0.471	0.578	0.21	-0.507
UUGGGGAGGAGCUAAGAAGCCCCUACAGGGCCCAG [hsa-mir-4257]	1.05	0.56	0.138	0.24	1.25
UUGGUCCGUAUGUGUGGUGCCACCGG [hsa-mir-1908]	0.948	0.148	-0.202	-0.0706	-0.147
UUGGUCUUUCCCCUGUGGUCCCAA [hsa-mir-2909]	0.207	-0.276	-0.158	0.152	-0.499
UUGGUGACAGCAGCAGUAGAGUUGCCAG [hsa-mir-6501]	0.272	-0.35	-0.632	-0.445	0.0434
UUGGUGUGUAUUGCCUUGUCAA [hsa-mir-1179]	-0.0369	-0.924	-0.972	-0.217	-0.723
UUGUAAUAGUGUAGAAUGUUGGUUAAC [hsa-mir-591]	0.44	0.358	-0.133	0.537	0.797

Sequence	pull-down binding Z-score [1]	pull-down binding Z-score (TO-N3 (biotin conjugate))	pull-down binding Z-score [2]	pull-down binding Z-score [3]	pull-down binding Z-score [4]
UUGUCGUUAAAAAUAGCAA [hsa-mir-548n]	-0.863	-0.847	-0.497	-0.149	0.889
UUGUCUCCUCAAGUUGCGACGAGACAG [hsa-mir-4645]	-0.585	-0.358	-0.254	-0.451	-1.13
UUGUGAAACACAGGUGUUUUUUAACCUCAC [hsa-mir-6841]	0.257	0.172	0.199	0.0964	-0.237
UUGUGAUGUUUACCGUUUAAAUCCACGG [hsa-mir-125b-1]	0.078	0.107	0.0416	-0.313	-0.878
UUGUGGCAAUACAG [hsa-mir-8068]	-0.0186	-0.425	-0.437	-0.166	0.635
UUGUGGCUUUGGGUGGAUAUUAAUCAGCCACAG [hsa-mir-383]	0.0594	0.0969	0.257	0.274	0.747
UUGUGUAUGUACUUAGCUGUACUAUA [hsa-mir-1244-1_1244-4_1244-2_1244-3]	-0.486	-0.627	-0.689	-0.417	0.509
UUGUGUCCAUCAUGCAACAA [hsa-mir-802]	0.396	-0.144	-0.49	-0.248	-1.17
UUGUGUGGUAUCCGUAUAGUCACAG [hsa-mir-10b]	-0.0857	-0.277	-0.416	-0.634	-0.0547
UUGUUACAUUUUAGGAUUGCUUGCCCCUUGCUCCAAUGGUGCAGGCAGAAGAAAUGCAAACAA [hsa-mir-3973]	1.25	0.135	-0.0993	-0.0806	-0.551
UUGUUCGUUGCAUUUUUAGGAACAA [hsa-mir-3613]	-1.23	-1.52	-1.11	-0.623	1.4
UUGUUCUGAUGUACUACGACAA [hsa-mir-7-3]	-0.186	-0.672	-0.716	-0.294	-1.28
UUGUUGUUAUUACU [hsa-mir-378d-1]	-0.877	-0.378	-0.148	-0.259	-0.945
UUUAAGACACCCUGUACCUUAAA [hsa-mir-3121]	-0.346	-0.415	-0.44	-0.305	-1.57
UUUACAUAUAAAUUUCUAUUUGU [hsa-mir-4503]	-0.557	0.596	0.81	0.317	-1.51
UUUACAUGCUACAGUCAAGAUGCGAA [hsa-mir-15b]	-0.147	0.275	0.288	0.0265	-0.982
UUUACCAUUACUUUCAAUGGCAAA [hsa-mir-548a-3]	-1.82	-1.76	-1.16	-0.786	-0.644
UUUACUUUUGGCCUCAAGUCAUUGCAGUAAA [hsa-mir-4796]	-1.18	-0.832	-0.696	-0.635	-0.453
UUUAGAAAAGAGAAUUCCAAA [hsa-mir-1252]	-0.676	-0.315	-0.294	-0.206	-1.48
UUUAGAUUUAAAUAGUGAUUGUCUAG [hsa-mir-29b-1]	-0.27	0.194	0.267	-0.0424	0.526
UUUAGUAUGCCACAUUUCUAAA [hsa-mir-4282]	-0.699	-0.757	-0.601	-0.374	-1.54
UUUAUGCCUGUUAGCAUGAAAAAAGAGGCUGAGAA [hsa-mir-7515]	0.0418	-0.368	-0.5	0.165	-0.395
UUUCAGAUAACUCGGGA [hsa-mir-4320]	0.00433	0.116	0.173	-0.229	-0.732
UUUCCCAUUAUUUUAAUUGCGAA [hsa-mir-570]	-1.16	-0.927	-0.699	-0.363	-0.975
UUUCUAUAACUGGAUGAAA [hsa-mir-498]	-0.778	-0.488	-0.457	-0.431	-0.372

— the supplement of paper PMC11865577
